Assay results from a protein production outcome set (Wang et al. 2014).

Assay: label from the status in PepcDB records

Sequence | protein production
GSAASSALKGLIQQFTTITGASESVGKHMLEACNNNLEMAVTMFLDGGG | not failed
MPMSSPMMSDTDREDLDAILRTVLVSDKGYVETLSRATGLNGKALTDKAAFTLSRLSAVGGYDYENEALEVAGRYLAEARFTEAEAIYRQVLVSFPEKHGFNHPGYATRLNNLAEVLRATARYDEAESLYRQALEIDREALGLEHPDYGIDLLNLAGLLHDRGRYEAAEPLYREAMTIIGKVVGEEHYRYATAQNNLAGLLQDMLRFEEAEALCRQALEITSKTLGESHSVYATRLNNLAELLGTTERYGEAEPLYRQALEITQKTLGEEHPDFAIRLNNLAVLLKATGRYEEAEPLYRQALEITHRTLGEAHPDYATRLNNFAGLLDSTERYDEAEPLYRQALEICEKALGVEHPSTQTVRANLELFLSEKPD | failed
MWDSENIEELSLVIGIGLDKPDDENLELTQQILVPKIISAKEGSSSDPTQLSITKGKTVHQMMRTSALKHKPTFSQHLRLILLSKSVIADQIGMDAIINQFVRDNGTRRSSYVFITNGRTKDIFNMNDEGEPASNVIYDLTENNKVTIRTMEPVTLGEISEHLTSDDSFLIPHVGKENGKLAINGASIIKNKLWHRDLTPIEVQNISLFSGTVEGGVIDLKRDGHLFSYEVYSSNRKIKTAYKDGKFKFTVTRNIEGRLSEDWNPNEDSFKDSYIKSIEKTVEKRVHETVTSFITEKLQKEIKADVTGLGNEVRIHYPQKWKKISRKWDDDYFSNAEIDYRVNVIVRDFGTKGANKLEHHHHHH | not failed
MYTITDIAPTDAEFIALIAALDAWQETLYPAESNHLLDLSQLPPQTVIALAIRSPQGEAVGCGAIVLSEEGFGEMKRVYIDPQHRGQQLGEKLLAALEAKARQRDCHTLRLETGIHQHAAIALYTRNGYQTRCAFAPYQPDPLSVFMEKPLFADLRSAAL | not failed
MAMEIGEDEWKVCCGSSEFAKQMSTSGPLTSQEAIYTARDIWFNQVNVTDWLEAFSAHPQIGNTPSPSINSDFARRSVSEQSTAFATTSASALQELAEWNVLYKKKFGFIFIICASGRTHAEMLHALKERYENRPIVELEIAAMEQMKITELRMAKLFSDKAKVISETDSSSSPVSTKPQDRLRIIGGHLNVAAEAKAPKRSRPPITTHVLDVSRGAPAAGVEVHLEVWSGTTGPSFVHGGGGVWSSVGTSATDRDGRSGPLMDLVDALNPGTYRISFDTAKYSPGCFFPYVSIVFQVTESQKWEHFHVPLLLAPFSFSTYRGS | failed
MSLSDDPMASIKLLNLERENSAIAQYQSNIANLKTTLSSQETHLDSVSESLKSMRDIVLWGANGSLTDQDRSGMITELKSYRDSIESSFNAQDEEGHFLFSGTKTDTAALNKSSGAYVVEGNSDVRVVTVAKGVTMDSNMTAQEILDIGGGKNVLNQIDALIAEFEKPSPNFQAEVDASLNAIDDTMANVLGAMTEIGGRHNNLDLMDGAHSENKLFVDKVSGDLSALDYGEGHHHHHH | not failed
MAKRVFIGATGQNCGKTTMSVSLMHLARQKYDRVGFIKPIGPKIEGYNGLTVDMDAILMARTFGLEEDLPLMNPVSLHKNFTRDFLSGKLDCNVLKTKILEAFEILDKKYDFLIIEGAGHGGVGSVIGLSNACVAHTLNAPVIIVTDSGIGSSIDAVHLNLALYEKEDADVRMLLVNKLRADKRESILSFLGKGFPGRPLKISGGFNYSPILANPTLSHIGKLLNLPVHGDPDGQSRIIHHIHLGAASAQRVVDALQESTLIVITSSRDELIVTLSSLYHIPAFREKIVGLVIAGHIPASEISQQILDDSNIPYIRVHDSTANVFTTLMEDVAKITAEDQEKLNWIRANAENEIDFEAIDALLLEHHHHHH | failed
KIRSYTSIWSVEKVLYSINDFRLPFPITFTQMTWFVVSLFAVMILGNVPPLSMIEGAFLKYFGIPVAFTWFMSTKTFDGKKPYGFLKSVIAYALRPKLTYAGKKVTLGRNQPQEAITAVRSEFY | failed
MRTERWWQDTSVTDHLFRQFGRFEFIQATRLLRHVPYHMDQTQWASEFQFGSSLALSFPKTEIEHLAQSDERIEMTSLVVGLTGTQGALPYTYTNKLKQSSRQQRREIQAFLGLFNHTLTVQYVDASLVHHLPVRYEVEQENHYLNILHALNGYISSHHQHNELDEYFAEFAGLMQGQNNTAHALTTMLTCIFKQKVMVKEFIREKFYLSDEQKTCLGGAQPSLLGINTFCGDTIEQIDGKIEIQIGPLKRKQYLDFLPSGRASTQLKHILATWCSPTLLVDLRLILDQDDVQPFCLDSVHQMGLGQGVFLTSQASNQDNQDTCYSLIGAVA | failed
MMTSAAPKPVRENIARAKAYLRRDDLPRSMAAMATALRELKGTRLIGQARFETEVNIHEYVTELNRHQAVRRFFEAQGVLSTPFVTYAKGAETELAERLESIRAGFEKDVAAHAAQHAAKVAHRKEALLRSGQEKLDAGDAPRGRSFLKRAADEFGHEAGVLTDIGQRLQRAGLLFEAAEMFENAIAAFPKDGHAHAGVVAAYMGLQEYPKAEMAYTRALKQFGTHPKTLVNMARMYLAWRKRDEAWTHIQRALQLAPGDAEAKALLAEIEGRGSRR | failed
MILSNYPLRDRKDSTMGSKTKIVVIRCKELIAGIILSVIALAILALIVISLMNRNTHDTTPPSGRYTAGVYSSSVILNGNPVDIRVTVDEDNINNIEMVNISDSVTTMYPLIQNSFEEIKSSVIANGGVEGVTYSSENKYTSVMILKAIENALDKCRTY | failed
MPSSDLRAFVVRVVIVLALVAYAWLLWALSGLLLMVFGAVVVAVLLRALASWVTRYTPLSDGMALGLVVVVVAVGFTALLWLFGSQLATELGALQRTLPQAWARFHDWVAAGPLGPALEELTRQAPARVSNLAPRAGAFALSITGGVANLFLVLAGAVYLAAQPQLYRRGVLLLFPVQVRATMDDAVRASGTALRLWLRGQLLAMVVVGALTGLGLWALGIPGALALGIIAGLLDFVPIVGPILAAIPAILLGFTVSPQMALATAALFVVVQQIEGNILLPLIQQRTVDLPPVLLLFSLFGIGTLLGPAGVLLAAPLTVVAFVLVKRLYVQEALHTPTSIPGQKHH | failed
MFGRCVRVKENMTYTEFVRTLSEAFSLKSTEINPIISYWMPGEMLVMIDTKRLPVYIDSQVGLNTFFMIRGRYPSLNLFVSFITTVKTLENNVSRTHGDDAESDRVSNVDENNEAVDEQDDVEDDKTDEDEEEGDNEDGDGYDDYQGDDGSMGGSTLDPTIDGSESNGEDYDYNKWNDVIVEEYGIGNVEENVILIPGEFSRLLAECTYTS | failed
MSKREDEGCARKRRTEAGQRSEDCMNPNSVVISAFKVFQQELDTRYDKYERLVKISRDVTIESKRTIFLLHRVASVPDVEEILNEAEVKLDGVRQKIGQIAEELRGEDLHQFHRAFTPGIQEYVEAVSFHHFIRHRSLISLEEINARLVFIRDNNKAVGEGTFSSPCVLTFQITPTDYLLGVADLTGELMRMCISSVGNGDMDTPFQLSGFLRQIHDGFSLIGNTGPYEVSKKLHALRQSLGKVEDACYTLRVRGSEIPKHMLADVFSSRAAHIDPDDAMA | not failed
MRIAVVGATGRIGSKLTRTLLGAGHQVKALSRGGAALEALVEAGAEPFLGSFDTGAGALDTFFQDVEAAFLMVKTDWNNIEGHYPAVAQRFVDALRGSPVKLAVSLSAMGSDVDGKTGHFELFHHLDQRLNELNDIDMVHLRAAWFMENTLAWTASVAKYGRLAWFYEPDLKMPWVATDDIAGLAAKELTNPTGDHRVIRETGSEDLTMNELAAMIGREIGKPVEYRFIDRGRKEIENEYLARFGTPEHWLDDSRSADALNHGVVRFQGGDDVRPVLPTTMEAFLKTIWTPRYLEALASEGKPETFEMWCAR | failed
MTKGESTMQRIAVLSDAETATGYRLAGATVIEASPEDALRTLEQAITDGGYGLIAVDTGLIPDPATATARIMRGRDLPILLPIPSLRDAFSSDTVDAKAYMGKLVRDTIGFDIKLLEHHHHHH | not failed
MEDTMSKKAKKIIKIVVISIVTLAITICFGGYMMFHNEIKTLHSIEKLDDYPFYMMEYYGDYGLDEFLEQGGASSDSELVSFVVKRLMKGLPIEINIPSLGCSTFTAVTPENEYLFGRNFDLSYSPAMMVRTKPEKGYESVSMVNLGFIGYGKDKLPDNFFNSITTLAGPYAPLDGMNEKGLSVGVLLIPTEETNQTTNKVDITTTTAIRMILDTCATVEEAVDLLSQYDMHSSANSCYHFQIADANGTSVVVEYINNEMKLVEPKQAYQAATNFLLTPGDYDFGHGQDRYNTLMTTLDKKQGVLSEKEAMNLLKAVSQQPHKTKDGSISATQWSVVYNNTKRTATVSMGMDYQHTYEIKLFE | failed
MFLNGKVFIKGALGPRRRDASVSATQSQGAGGGVWGGPGSELAPPSRPRGRASGLLRIKLFEASRLRSRERKMAAPAGGGGSAVSVLAPNGRRHTVKVTPSTVLLQVLEDTCRRQDFNPSEYDLKFQRTVLDLSLQWRFANLPNNAKLEMVPASRSREGPENTVRIALQLDDGCRLQDSFCSRQTLWELLNHFAQTRERLQQLGERTPVCVYMRDEVTGRAALQNTTLQSLGLTGGSATIRFVIKQYDTTGKQESIAVRSKPPGSPVSSMSADQASSSPLLPLNSGEFSRGDLNHQGGASTSGTSLKGGPKPADAQTKQSTTKESASAPFIPFSGGGQRLGGPSVSLRSLTSPAAKSSTSFSGPGGPSKPKKSKPGEEPPQEPEPPVDRDPVVCHPDLEDLLQPWPAEVPDEFFEVTVDDVRRRLAQLKSERKRLEEAPLVTKAFREAQMKEKLERYPKVALRVLFPDRYILQGFFRPSETVGDLRDFVRSHLGNPELSFYLFIAPPKMVLDDHTLTLFQVPIALRVLLGLAVLGGQALCCGWVGKEPWQALQWVIKPLEPVNSEGAVASEVVSDWAFQPPPLPAWPRGGDWPAQLAGLLSSAGAA | failed
MEQRVLGGRYLLKDKVGTGGMATVYRAQDQVLDRTVAVKIMLPQYAGDATFAARFKQEAQAAAGLSSPYIVGVYDWGKDGDTYYIVMEYLRGTDLKSGIKSHGALDPKKVAQIGSQISSALSVAHKHEIIHRDIKPQNIMVLPDGNIKVMDFGIARAKNSHLTQDNNVLGTAHYVSPEQTRGQDLGPTSDIYSLGVVMYECATGRVPFDGDDAISVALKQVNELPIPPSQINSGVDADLERIILKCMEKDPTNRFQTADELRQVLNSYLSGRAVNVSEPTRIIGAPGELGATKTRELSDQTRAMVRPVSGVSGQNTARSSVSGSTGSYEVEEPKSNKNKIIAAVVAAVAVIGIVVAFATGLFGGEQVTVPDVLGKDQQTAVELIKEAGLEVGTIDQSYNDDVDEGKVAEQTPNGNTKKTKGTKVNLVISKGPKPSEKVEVPKLVGLTKDQAEAALASVGLKGNASEEANEADEGQVFEQGTEAGKEVAKGTTISYKVSSGPDTTSVPDLTDMTEAQARNALDMAGFGVDVSYQENDSVTEGTVISWNPSGKQKPGATITVVIAKKSGKATVPGNLYGKSISAAVTALNNAGFYNIGFCDQNGNPVSGNEDATVTGVSPTGKQSTDSTITLTVALSGSGSGSGTSTGDDSGTTN | failed
MYIRGVGDIIYFLQQLHPLEQALLAGIFTWGMTALGAASVFFTREVSRKVLDSMLGFTAGVMIAASYWSLLAPAIEMSEGRSIPAWLPAVLGFLLGGLFLRGIDKILPHLQFGSATEAAEGLKTSWRRNTLLVLAVTLHNIPEGLAVGVAFGAAASGYMYSLPAAIALTTGIGIQNFPEGLVVSVPLRREGMSCFKSFNYGQASAIVEPIASVIGVAAVMLVRPILPYALAFAAGAMIFVVVEEIIPESQHGGNAPLATIGTMIGFSVMMVLDVAFG | failed
MKILNIFDAVRDGTFQDFKNFYEGNINVISGNLDLNLLCMAVTNDKNPEEKLQIIKFLFAEGIDVNYATQKEKRNALHLFYFCVLRPTIEYEMEITNLFIKHGVNVNATDKYNAIPLKYAITINNLPTSDNKEMYQLLLNKGSDYNLKDGFGKSCLDYAKEYSWRNDFLDIVKEYENSKK | failed
